In the supplement of paper PMC11246515:
± gives the standard deviation of the averaged measurements.

Test: total protein half-life in vivo (active degradation + dilution); higher = more stable protein
[1] = E. coli NCM3722 delta-clpP delta-lon delta-hslV, growth: N-lim chemostat, doubling time 6 h
[2] = E. coli NCM3722 delta-clpP, growth: N-lim chemostat, doubling time 6 h
[3] = E. coli NCM3722 delta-smpB, growth: N-lim chemostat, doubling time 6 h
[4] = wild type E. coli NCM3722, growth: C-lim chemostat, doubling time 3 h
[5] = wild type E. coli NCM3722, growth: C-lim chemostat, doubling time 6 h
[6] = wild type E. coli NCM3722, growth: C-lim chemostat, doubling time 12 h
[7] = wild type E. coli NCM3722, growth: N-lim chemostat, doubling time 12 h
[8] = wild type E. coli NCM3722, growth: P-lim chemostat, doubling time 6 h
[9] = wild type E. coli NCM3722, growth: P-lim chemostat, doubling time 12 h
[10] = wild type E. coli NCM3722, growth: N-lim chemostat, doubling time 6 h
[11] = E. coli NCM3722 delta-lon, growth: N-lim chemostat, doubling time 6 h
[12] = E. coli NCM3722 delta-hslV, growth: N-lim chemostat, doubling time 6 h

Row | Sequence | total protein half-life in vivo [1] [h] | total protein half-life in vivo [2] [h] | total protein half-life in vivo [3] [h] | total protein half-life in vivo [4] [h] | total protein half-life in vivo [5] [h] | total protein half-life in vivo [6] [h] | total protein half-life in vivo [7] [h] | total protein half-life in vivo [8] [h] | total protein half-life in vivo [9] [h] | total protein half-life in vivo [10] [h] | total protein half-life in vivo [11] [h] | total protein half-life in vivo [12] [h]
1 | MNKNMAGILSAAAVLTMLAGCTAYDRTKDQFVQPVVKDVKKGMSRAQVAQIAGKPSSEVSMIHARGTCQTYILGQRDGKAETYFVALDDTGHVINSGYQTCAEYDTDPQAAK [P0ADB1] | 5.54 ± 0.094 | 5.7 ± 0.36 | 5.74 ± 0.22 | 3.03 ± 0.22 | 6.14 ± 0.68 | 10.4 ± 1.6 | 12.3 ± 2.4 | 5.73 ± 0.26 | 12.6 ± 0.59 |  |  | 
2 | MSRVNPLSSLSLLAVLVLAGCSSQAPQPLKKGEKAIDVASVVRQKMPASVKDRDAWAKDLATTFESQGLAPTLENVCSVLAVAQQESNYQADPAVPGLSKIAWQEIDRRAERMHIPAFLVHTALKIKSPNGKSYSERLDSVRTEKQLSAIFDDLINMVPMGQTLFGSLNPVRTGGPMQVSIAFAEQHTKGYPWKMDGTVRQEVFSRRGGLWFGTYHLLNYPASYSAPIYRFADFNAGWYASRNAAFQNAVSKASGVKLALDGDLIRYDSKEPGKTELATRKLAAKLGMSDSEIRRQLEKGDSFSFEETALYKKVYQLAETKTGKSLPREMLPGIQLESPKITRNLTTAWFAKRVDERRARCMKQ | 6.06 ± 0.21 |  | 5.8 ± 0.24 | 3.28 ± 0.2 | 6.11 ± 0.086 | 11.2 ± 0.54 | 12.9 ± 0.39 | 6.11 ± 0.4 | 12.4 ± 0.53 | 6.93 ± 0.84 |  | 
3 | MLPPYFLFKEMTDTQYIGRFAPSPSGELHFGSLIAALGSYLQARARQGRWLVRIEDIDPPREVPGAAETILRQLEHYGLHWDGDVLWQSQRHDAYREALAWLHEQGLSYYCTCTRARIQSIGGIYDGHCRVLHHGPDNAAVRIRQQHPVTQFTDQLRGIIHADEKLAREDFIIHRRDGLFAYNLAVVVDDHFQGVTEIVRGADLIEPTVRQISLYQLFGWKVPDYIHLPLALNPQGAKLSKQNHAPALPKGDPRPVLIAALQFLGQQAEAHWQDFSVEQILQSAVKNWRLTAVPESAIVNSTFSNASC |  | 3.9 | 3.67 ± 0.12 | 3.26 ± 0.7 | 5.73 | 3.64 |  | 4.7 | 9.87 ± 0.39 | 3.84 | 5.27 | 
4 | MKELVVVAIGGNSIIKDNASQSIEHQAEAVKAVADTVLEMLASDYDIVLTHGNGPQVGLDLRRAEIAHKREGLPLTPLANCVADTQGGIGYLIQQALNNRLARHGEKKAVTVVTQVEVDKNDPGFAHPTKPIGAFFSDSQRDELQKANPDWCFVEDAGRGYRRVVASPEPKRIVEAPAIKALIQQGFVVIGAGGGGIPVVRTDAGDYQSVDAVIDKDLSTALLAREIHADILVITTGVEKVCIHFGKPQQQALDRVDIATMTRYMQEGHFPPGSMLPKIIASLTFLEQGGKEVIITTPECLPAALRGETGTHIIKT |  |  |  | 2.78 ± 1.3 | 5.03 |  |  |  |  |  |  | 
5 | MSTDNKQSLPAITLAAIGVVYGDIGTSPLYTLRECLSGQFGFGVERDAVFGFLSLIFWLLIFVVSIKYLTFVMRADNAGEGGILTLMSLAGRNTSARTTSMLVIMGLIGGSFFYGEVVITPAISVMSAIEGLEIVAPQLDTWIVPLSIIVLTLLFMIQKHGTAMVGKLFAPIMLTWFLILAGLGLRSIIANPEVLHALNPMWAVHFFLEYKTVSFIALGAVVLSITGVEALYADMGHFGKFPIRLAWFTVVLPSLTLNYFGQGALLLKNPEAIKNPFFLLAPDWALIPLLIIAALATVIASQAVISGVFSLTRQAVRLGYLSPMRIIHTSEMESGQIYIPFVNWMLYVAVVIVIVSFEHSSNLAAAYGIAVTGTMVLTSILSTTVARQNWHWNKYFVALILIAFLCVDIPLFTANLDKLLSGGWLPLSLGTVMFIVMTTWKSERFRLLRRMHEHGNSLEAMIASLEKSPPVRVPGTAVYMSRAINVIPFALMHNLKHNKVLHERVILLTLRTEDAPYVHNVRRVQIEQLSPTFWRVVASYGWRETPNVEEVFHRCGLEGLSCRMMETSFFMSHESLILGKRPWYLRLRGKLYLLLQRNALRAPDQFEIPPNRVIELGTQVEI | 7.06 ± 1.1 |  | 5.9 ± 0.4 |  | 6.79 ± 0.6 | 14.2 ± 1.2 | 12.17 ± 0.096 | 6.43 ± 0.26 | 12.6 ± 0.69 | 6.28 ± 1 | 6.28 ± 0.53 | 6.21
6 | MYLRPDEVARVLEKVGFTVDVVTQKAYGYRRGENYVYVNREARMGRTALVIHPTLKERSSTLAEPASDIKTCDHYQQFPLYLAGERHEHYGIPHGFSSRVALERYLNGLFGEAS [P0AD53] | 4.77 ± 0.34 | 1.5 | 0.698 ± 0.21 | 1.18 ± 0.14 | 1.81 ± 0.54 | 1.42 | 1.14 | 1.03 ± 0.22 | 2.61 | 0.609 ± 0.47 | 2.99 ± 0.41 | 0.818
7 | MRKILITGGAGFIGSALVRYIINETSDAVVVVDKLTYAGNLMSLAPVAQSERFAFEKVDICDRAELARVFTEHQPDCVMHLAAESHVDRSIDGPAAFIETNIVGTYTLLEAARAYWNALTEDKKSAFRFHHISTDEVYGDLHSTDDFFTETTPYAPSSPYSASKASSDHLVRAWLRTYGLPTLITNCSNNYGPYHFPEKLIPLMILNALAGKSLPVYGNGQQIRDWLYVEDHARALYCVATTGKVGETYNIGGHNERKNLDVVETICELLEELAPNKPHGVAHYRDLITFVADRPGHDLRYAIDASKIARELGWLPQETFESGMRKTVQWYLANESWWKQVQDGSYQGERLGLKG | 5.27 ± 0.23 | 5.27 ± 0.67 | 4.74 ± 0.24 |  | 6.39 ± 0.12 | 11.7 ± 1.8 | 10.7 ± 2.9 | 6.4 ± 0.31 | 12.61 ± 0.0068 | 4.95 ± 0.23 | 5.96 ± 0.64 | 5.1 ± 0.12
